Measurements from US9701739B2, “Monoclonal antibody having immunosuppressive activity or antigen binding fragment thereof” (Josai University Corporation, priority 2010, dated 2017).

Legend:
[1] = system: T cells from a Balb/c mouse (mitochondria ATP synthase knocked down or not); experiment: MLR test with T cells with or without mitochondria ATP synthase knock-down by siRNA; type: cell-based
Protocol: First, T cells from a Balb/c mouse having mitochondria ATP synthase knocked down were obtained using Accell siRNA kit from Thermo Fisher Scientific Inc.
Next, according to the method in Test Example 2, MLR tests were performed using Example 1 (SSV mAb) as a test substance using the T cells obtained.
In the test, Isotype IgG1 (eBioscience) was used as a control reagent. In addition, a similar test was performed using T cells from a mouse not having the ATP synthase knocked down as a control test.

[2] = system: Spleen lymphocytes from a naive DA rat (responsive cells) with mitomycin-C treated LEW rat spleen lymphocytes; experiment: Mixed lymphocyte reaction (MLR) test, BrdU incorporation; type: cell-based
Protocol: Spleen lymphocytes from a naive DA rat (responsive cells) and spleen lymphocytes from a LEW rat treated with mitomycin-C (Kyowa Hakko Kogyo Co., Ltd.) were used. The responsive cells were adjusted to 5×10^5 cells/mL with 10% FCS—RPMI culture medium, and the stimulated cells were adjusted to 8×10^6 cells/mL with 10% FCS—RPMI culture medium. After plating the responsive cell suspension and the stimulated cell suspension in an amount of 100 μL to a 96 well round-bottom plate (Nunc Brand Products) respectively, the monoclonal antibody 16G9 mAb of Reference Example 1 (0.1, 2, 4, or 6 μg/mL/well) or the monoclonal antibody SSVmAb of Example 1 (4 μg/mL/well) was added at the start of mixed culture, and cultured for 3.5 days or longer under the conditions of 37° C., 5% CO2/95% air. In addition, an immunosuppressive agent tacrolimus (FK506: Fujisawa Pharmaceutical Co., Ltd., 1 nM/well) was added as a positive control. Further, 10 μL bromo deoxyuridine (BrdU) was added 15 hours before the end of culture. Then the proliferation potential of the cells treated with the immunosuppressive agent was measured using BrdU labeling & detection kit III (Roche Diagnostics K.K.) using the amount of BrdU incorporated into cellular DNA as an indicator. The proliferation potential was used as an indicator for a level of immunosuppression.

CD3 positive T cells = experiment: Reactivity of the monoclonal antibody with T cells by flow cytometry (FACS); type: cell-based, C57BL/6 mouse; conditions: unstimulated T cells, 10 μl of 100 μg/ml primary antibody, student t-test, FIG. 5
Protocol: Using the following approach, spleen was removed from a C57BL/6 mouse (5 weeks old, female, CHARLES RIVER LABORATORIES JAPAN, INC.) to prepare whole splenic cells.
First, in a 5 ml culture dish (BD Bioscience FALCON 351007) into which 5 ml RPMI 1640 culture medium (Sigma-Aldrich, R-8758) was transferred, spleen was disentangled well with scissors for dissection and forceps to suspend the splenic cells, which were then transferred to a 15 ml centrifuge tube (BD Bioscience FALCON 352096). Then, the 5 ml dish was washed several times with phosphate-buffered saline (PBS, Invitrogen, 20012-027), and these were also added to the foregoing cell suspension and allowed to stand, and then the supernatant was collected in another 15 ml centrifuge tube. In addition, 5 ml RPMI 1640 culture medium was also added to the residual insoluble spleen tissue again and allowed to stand, and then only the supernatant was collected, which was combined with the above-mentioned cell suspension to perform centrifugation at 1,500 rpm for 5 min. To the collected cells, added was 2 ml lysis buffer (150 mM NH4Cl/15 mM NaHCO3/0.1 mM EDTA-Na2, pH 7.3) and hemolyzed by tapping, and then 10 ml PBS was added. After washed 3 times by centrifugation at 1,500 rpm for 5 min, whole splenic cells were obtained. […]
The reactivity of the above unstimulated with 16G9 mAb or SSV mAb was analyzed by flow cytometry (FACS). […]

[3] = system: histone H1, H2A, H2B, H3 or H4; experiment: ELISA determination of the affinity for histone H1 and core histone; type: binding; conditions: 5 μg/mL antibody, FIGS. 2 and 3
Protocol: For an antigen, histone H1, which is an antigen of Reference Example 1 (16G9 mAb), and core histone H2A, H2B, H3 and H4, which are histone H1 antigen analogs, were selected.
The Affinities between histone H1 or core histone and SSVmAb were determined by ELISA.
A 96 well microplate was coated with histone H1, H2A, H2B, H3 or H4. Each histone used was dissolved in 100 mM sodium carbonate buffer (pH 9.3). The plate was washed with PBS-tween 20 (0.05%), and blocked with 3% skim milk and 1% BSA for 1 hour. To each well, 5 μg/mL SSVmAb was added, and incubated for 1 hour. Bound SSVmAb was detected using peroxidase (HRP) conjugated anti mouse IgG1Ab (SIGMA), and incubated for 1 hour. Bound SSVmAb was detected using the ABTS [2,2′-azino-bis(3-ethylbenzothiazoline-sulfonic acid)] substrate solution, and absorbance at 405 nm was measured using Multiskan Ascent (Thermo Fisher Scientific Inc., Waltham, Mass.).

B1: SSVmAb: IgG1 monoclonal antibody produced by Mouse-Mouse hybridoma SSV-C 93-3 (NITE BP-972), raised against … peptide-KLH conjugate (antibody, V domains shown)
VH: EIQLQQSGAELVKPGASVKISCKASGYSFTGYNMNWVKQSHGKSLEWIGNINPYYGSTSYNQKFKGKATLTVDKSSSTAYMQLNSLTSEDSAVYYCARSPYYSNYWRYFDYWGQGTTLTVSS
VL: QIVLSQSPAILSASPGEKVTMTCRASSSVSYMHWYQQKPGSSPKPWIYATSNLASGVPARFSGSGSGTSYSLTISRVEAEDAATYYCQQWSSNPWTFGGGTKLEIK
notes: IgG1 monoclonal antibody produced by Mouse-Mouse hybridoma SSV-C 93-3 (NITE BP-972), raised against … peptide-KLH conjugate
cell growth inhibition compared with Isotype IgG1 ([1]; ATP synthase knocked down, FIG. 6B): no significant difference
cell growth inhibition compared with Isotype IgG1 ([1]; ATP synthase not knocked down, FIG. 6A): significantly inhibited cell growth
absorbance which indicates the amount of incorporated BrdU ([2]; 4 μg/mL/well, mean±S.E., cultured 3.5 days or longer, FIG. 4): 0.552±0.114
absorbance (incorporated BrdU) compared with reference antibody and tacrolimus ([2]; SSVmAb 4 μg/mL/well, 16G9 mAb 0.1, 2, 4 or 6 μg/mL/well, FK506 1 nM/well): lower than that of Reference Example 1 (16G9 mAb) and tacrolimus (FK506)
mean absorbance of Example 1 relative to that of Reference Example 1 ([2]; same amount added (4 μg/mL/well)): about 41%
reactivity with CD3 positive T cells (CD3 positive T cells): comparative reactivity
affinity for histone H2A, H2B, H3 or H4 compared with affinity for histone H1 (absorbance at 405 nm) [3]: higher than the affinity for histone H1
